Legend:
purified protein [1] = substrate: CC(C)=CCOP(=O)(O)OP(=O)(O)O; assay: purified protein; conditions: regular coupling; two-substrate reaction with IPP
purified protein [2] = substrate: C=C(C)CCO[P@@](=O)(O)OP(=O)(O)O; assay: purified protein; conditions: regular coupling; two-substrate reaction with DMAPP

B1: neryl diphosphate synthase from Solanum lycopersicum (SlNPPS) (Solanum lycopersicum; N88H) (protein)
chain: SLNLQTEKLCYEDNDNDLDEELMPKHIALIMDGHRRWAKDKGLEVYEGHKHIIPKLKEICDISSKLGIQIITAFAFSTENWKRSKEEVDFLLQMFEEIYDEFSRSGVRVSIIGCKSDLPMTLQKCIALTEETTKGNKGLHLVIALNYGGYYDILQATKSIVNKAMNGLLDVEDINKNLFDQELESKCPNPDLLIRTGGEQRVSNFLLWQLAYTEFYFTNTLFPDFGEEDLKEAIMNFQQRHRRFGGHTY
Km (purified protein [1]): 391 ± 96 µM | kcat (purified protein [1]): 87±15×10^-3 s^-1 | Km (purified protein [2]): 457 ± 91 µM | kcat (purified protein [2]): 87±15×10^-3 s^-1

Source: PMC9297866
